# Reference: patent publication US20200317769A1
# Target: soluble cynomolgus monkey TNF-alpha (cynomolgus monkey) (UniProt P79337)
# Assay: cell-based or functional assay
# soluble cynomolgus monkey TNF-alpha (cynomolgus monkey), sequence (P79337 77-233 limits assumed): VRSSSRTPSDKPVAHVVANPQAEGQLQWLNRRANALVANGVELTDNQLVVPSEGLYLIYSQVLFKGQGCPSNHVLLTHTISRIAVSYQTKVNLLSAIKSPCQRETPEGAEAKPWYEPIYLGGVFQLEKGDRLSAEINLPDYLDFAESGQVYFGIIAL
substance,measurement,value
adalimumab (antibody),Inhibition of cynomolgus TNF-induced L929 cell cytotoxicity EC50,0.04 nM
